Laboratory results published in paper PMC3723540, “A Moonlighting Enzyme Links Escherichia coli Cell Size with Central Metabolism” (PLoS Genetics, 2013).

B1: FtsZ (tubulin-like cell division protein) of E. coli, untagged (natural protein, UniProt P0A9A6 1-383, looked up)
chain: MFEPMELTNDAVIKVIGVGGGGGNAVEHMVRERIEGVEFFAVNTDAQALRKTAVGQTIQIGSGITKGLGAGANPEVGRNAADEDRDALRAALEGADMVFIAAGMGGGTGTGAAPVVAEVAKDLGILTVAVVTKPFNFEGKKRMAFAEQGITELSKHVDSLITIPNDKLLKVLGRGISLLDAFGAANDVLKGAVQGIAELITRPGLMNVDFADVRTVMSEMGYAMMGSGVASGEDRAEEAAEMAISSPLLEDIDLSGARGVLVNITAGFDLRLDEFETVGNTIRAFASDNATVVIGTSLDPDMNDELRVTVVATGIGMDKRPEITLVTNKQVQQPVMDRYQQHGMAPLTQEQKPVAKVVNDNAPQTAKEPDYLDIPAFLRKQAD
notes: FtsZ, cell division protein of E. coli, in its native (untagged) form; also called E. coli FtsZ; source: untagged
B2: OpgH^N (N-terminal cytoplasmic domain of the glucosyltransferase OpgH, residues 1-138) (domain or fragment)
chain: MNKTTEYIDAMPIAASEKAALPKTDIRAVHQALDAEHRTWAREDDSPQGSVKARLEQAWPDSLADGQLIKDDEGRDQLKAMPEAKRSSMFPDPWRTNPVGRFWDRLRGRDVTPRYLARLTKEEQESEQKWRTVGTIRR

Legend:
[1] = biological target: the molecule itself; experiment: 90° angle light scattering; 5 µM FtsZ in polymerization buffer (50 mM MES, 2.5 mM MgCl2, 1 mM EGTA, 50 mM KCl, pH 6.5), assembly started with 1 mM GTP, 30°C
[2] = biological target: FtsZ (tubulin-like cell division protein) of E. coli, untagged (E. coli) (UniProt P0A9A6)
[3] = biological target: FtsZ (tubulin-like cell division protein) of E. coli, untagged (E. coli) (UniProt P0A9A6); remark: listed apart in the source

| Binder | binding result [1] | reduction of FtsZ's GTP hydrolysis (regenerative coupled GTPase assay), 5 µM FtsZ, ratios FtsZ:OpgH^N of 1:1 (25%), 1:1.5 (55%) and 1:2 (84%); FtsZ alone 5.1 GTP/minute/FtsZ [2] [%] | apparent critical concentration (CcApp) of FtsZ for GTP hydrolysis at 0 µM (0.69 µM), 2.5 µM (1.31 µM), 5 µM (1.85 µM) and 10 µM OpgH^N (4.08 µM) [3] [µM] |
| --- | --- | --- | --- |
| B1 | binds | – | – |
| B2 | – | 84 | 4.08 |
